Experiments:
[1] = biological target: E. coli ColE-7 (E. coli) (UniProt Q47112); assay: SPR Biacore T200, 37 C, single cycle kinetics; biotinylated immunity protein on streptavidin sensor, colicin analyte 1.1-90 nM
[2] = biological target: GthCol (Geobacillus thermoglucosidasius C-terminal Colicin DNase domain, C36A, H78A, engineered) (Geobacillus thermoglucosidasius); assay: SPR Biacore T200, 37 C, single cycle kinetics
[3] = biological target: E. coli ColE-7 (E. coli) (UniProt Q47112); assay: SPR Biacore T200, 37 C, single cycle kinetics
[4] = biological target: GthCol (Geobacillus thermoglucosidasius C-terminal Colicin DNase domain, C36A, H78A, engineered) (Geobacillus thermoglucosidasius); assay: SPR Biacore T200, 37 C, single cycle kinetics; […]

What does the source list for “GthIM (Geobacillus thermoglucosidasius immunity protein, C18A, engineered), singly biotinylated”?
MR (Molar Ratio, binding stoichiometry) [1]: 1.2; fold stronger than the IM7/ColE7 interaction [2]: > 30 fold; complex half-life t/2-diss [3]: < 1 min; fold less affinity than GthIM/GthCol [3]: 65000 fold; GthCol concentration at which GthIM saturation is achieved [4]: 3 nM; Kd [4]: < 0.2 pM; MR (Molar Ratio, binding stoichiometry) [4]: 1.1; koff [4]: < 1e-05 s⁻¹; kon [4]: > 5e+07 M⁻¹ s⁻¹
